Source: a protein production outcome set (Wang et al. 2014)

Assay: label from the status in PepcDB records
In the case of “LVRQEETLRLAIDAADVGTWDHDLETGEVRLSDRCYAMFGVTPGEPVTHETLMPFTHPADVVRVQEAVARALDPAIRADYAIEFRVNGRDDHVERWLSAKGEVSFDNEGRPRRFLGAVVNITERKRAELHLRLLVNELNHRVKNSLATIQAIAAQSFNGQRDMDEAKEAFSNRIVALAEAHDLLTRENWEGAEMHDVAARVAALHGGDARFELSGVAIRLSPKTALSLSMALHELATNAVKYGALSVPEGVVRIVWDMAPEP”, the protein production is reported as “failed”.
For “LYATLSGVSLALADSADRRILLQTVCDVCVREAGFEMAWVGLLDADEKRVEVAALSRGERASMPGELPGHAEDAQAPGPVSRALRSRAAQVSNDAQSDPALKPWHGALSRQGIRSLLVVPLLVRQQVAGALALHAGEEGFFDQSRRALFELMAREIGRGLERHDALERSHRAETELAFLAQ”, the protein production was “failed”.
For “LYPILIGIYASVIPFYIALYSTFRLLSYIDENKAFSQISVKALNNIKHCTIAISILYMATMPFVYLLADKDDAPGLIIIGMVPIFASLVISVFSAVLQRLLQEAIDIKSENDLTV”, the protein production was “failed”.
With “MAAEHGLILDFTTVLGASALGGYLANRLRQPVLLGYLVTGLALGPYGLKLLSDVPRIQSLASIGVAFLLFALGVEFSLTELRRVKNIAINGSLLQIGLTTALVAFLTITLGWVDNLTQGIFLGVVLSLSSTAVVLKTLGERGETNTLHGQVMLAILIAQDLALGLILAFLPVLNQPERLVWALGIALLKVLLFLALAIALGRWIVPKLISNVAATESTELFVLTVISLCLSVALVTAKLGLSIEMGAFVAGLMVSEIDHADHALAKVLPLRDTFACLFFASIGMLIDPIALMQNLGLVLGLVTLVMLGKAIVVMPIILKFGYSLKTTILTSLGINQIGEFSFVLALAGLQLQLIPEKTYILLLETTAITLVLTPISLNIAPQLIERLTQIPFFAQSLRQFTEPNILSIPETISGHVVVAGYGRVGQVIVNILLNQGYVVLVIENSEAAIQRLRMQRIPYIFGDADSELVLEKIHLETAKALAIALPDPASSRLLLKRALAIAPKLDVIARSHHDNEIDLLTQMGAKEVVQPEFEAALELSAHLLSTLGEAKSQIDTVISDIRTDRYRSIRPRR” the protein production was “failed”.
For “MAAHLEEQQELDNFKYFWKTTGKWLFALLILAALGYLGYTVYQNRKVSQNQEAAAVLANIVEKAQSKAPQSEINAELTKLQQSYPHSISAAQATLMAAATEFDAQRYDVAEGHLKWVLSNQKDSLIQALAAQRLGVVLLQQKKYDAALAALDTPVEADFAPLLMETKGDVYAAQGKSQEALKNYGQALEKMPQDSVGRELVQMKLDSLK”, the protein production was “failed”.
With “MAAIVLTRNLQLAKHHGSGVVGVLCLRGYSAAAAPPEDGPRPLKTTNPAAMKRGTGGRSSFNGIVATVFGATGFVGRYVCNKLGKSGTQMILPYRGDDSDVIRLKVTGDLGQVLFHFYNLEDPASIRDAVKHSNVVINLVGRDFETKNFKFKDVHVNGAERIARIAREAGVERLIHLSSLNVEANPKDLYVKGGSEWLKSKYEGELRVRDAFPNATIIRPADIYGSEDRFLRYYAHIWRRQFRSMPLWHKGEKTVKQPVYVSDVAQAIINAAKDPDSAGRIYQAVGPKRYQLSELVDWFHRLMRKDQKRWGYMRYDMRWDPTFLLKAKLNSFICPGTPIGGLHPARIEREAVTDKVLTGVPTLEDLGVTLTTMEQQVPWELRPYRAALYYDAELGEFETPSPPKCIEARDELRLFA” the protein production was “failed”.
For “MAAKLCIPSSSFSHRTNDSITSSSSSYSSLLALPQFFCPPSPLGFPQFKLHAKLGGGDGEVKPKDKKKFITKDEEPEQYWQSVGEREGENPMKTPLPYIIIFGMSTPFVILAIAFANGWIKVPIR”, the protein production was “failed”.
In the case of “MAAKTRTFRAAADAWLKAKEEKGLAPSTLNKIRTYLDKDILPALGDKPLDEITRTDCAELQASIEARDAHNVAEKCRTWINQIFGRAIGLGLTENDPGSRLRDIAAQAPKTQLEHHHHHH”, the protein production is reported as “failed”.
In the case of “MAALAIIQSLNTSSYPIDIQRLKPKKMPEEPGPARNKFRSDFIVEIALIVAVAVYLVMAQGQVVGENLSFTVTGAALMALATYWTLHTIRDGLEVIALRLRPGK”, the protein production is reported as “failed”.
For “MAANRRNETASEAHGLDDILSAAAPRPRTALPNVATTVTTVAALYFGREVFLPIAIALLLTFALAPLVSALKRVGIPRIAAVIVSVLSAFAALALFSFVVATQVSELAQNIPVYQTNILAKIRSLKETGVGGGIIAKLSNVVERVGQEIDRQDATLPAATPDKQPREPVPVEIVARERPLEVLQNIVGPLISPLGSAGLIIVVVIFMLLEREDLRDRFIRLVGYGDLHRTTEALQDAAKRVGRYLLMQLVVNIVYAIPIAIGLWILGIPNALLWGLLALALRFVPYIGPAIGMLLPLFLALAVAPGWSLVLWTAALFVVMELVTGNVVEPWLYGSRTGLSPLAIIVAAIFWTWLWGPLGLVLSTPLTVCLVVLGRHVPQFEFLDVLFGNEPVLEPHARLYQRLLAGDPDEATDHAEEMLEEKYLVEFYDKVAIPALLLGERDRARGVMGDQQRRQVAASALALVANLEDDAKEEADGDDAPHVAEAEGEPGDAVEEEATELPDGTGLSVLCAGGRGDLDDAAAAMLAQVLEVQGATASKAGFAEMEPASIRRLELETIDTVVVGFLNRDSVKHARFLVRRLKRAKAALRVGIVFWSETGNGDKEAAAKLAQDINADFVAHGMVDAVTDALSHEPPVALKLVAKRRMRRPRAAPRKVPAAAAG”, the protein production was “failed”.
For “MAAPELLIPWADFLLCVALIAVAGNRLSRYGDVIAEKTGLSGSWIGLILLATATSLPELITGAAAVTAAGAPDIAAGDVLGSCVFNLVILVALDFLHRHESVYRRASQGHLLSAGFGIILLGLVGVNLLLADKHIVPTLGWVGLYSPLLGLLYLFSMRAVFLYEREQMAAFTEDMTEQYPGIRLRRAVMWYVAVAAVVVGAGVWLPSIGTTLAEVMGWNKSFVGTLFVAAATSMPELSVTIGAVRIRAVDMAIANLLGSNLFDLCILAIDDLAYLPGPLLSHVSSVHALSAFSAMVMTGIFIVGLLYRAGTRLFKTVGWVSIALLLVYLGNAYVLYLYDK”, the protein production was “failed”.
With “MAAPGGRGRSLSGLLPAQTSLEYALLDAVTQQEKDSLVYQYLQKVDGWEQDLSVPEFPEGLEWLNTEEPISVYKDLCGKIVVLDFFTYCCINCIHLLPDLHALEHTYSDKDGLLIIGVHSAKFPNEKVLDNIKSAVLRYNITHPMVNDADASLWQELEVSCWPTLVILGPRGNMLFSLIGEGHKDKLFLYTSIALKYYKDRGQIRDNKIGIKLYKDSLPPSPLLFPGKVTVDQVTDRLVIADTGHHRILVVWKNGQIQYSIGGPNPGRKDGIFSESTFNSPQGVAIMNNIIYVADTENHLIRKIDLEAEKVSTVAGIGIQGTDKEGGAKGEQQPISSPWDVVFGTSGSEVQRGDILWIAMAGTHQIWALLLDSGKLPKKNELTKGTCLRFAGSGNEENRNNAYPHKAGFAQPSGLSLASEDPWSCLFVADSESSTVRTVSLKDGAVKHLVGGERDPMNLFAFGDVDGVGINAKLQHPLGVTWDKKRNLLYVADSYNHKIKVVDPKTKNCTTLAGTGDTNNVTSSSFTESTFNEPGGLCIGENGELLYVADTNNHQIKVMDLETKMVSVLPIFRSENAVVDGPFLVEKQKTLPKLPKSAPSIRLSPVTACAGQTLQFKLRLDLPSGSKLTEGVSSCWFLTAEGNEWLLQGQIAAGDIENISSQPTISLQIPDDCLSLEAIVSVSVFLYYCSADSSACMMKAILFSQPLQITDTQQGCIAPVELRYVF” the protein production was “failed”.
In the case of “MAAPRPGPLRPARGFAPMNNVNGILLVVAAMAAFSIEDMFIKKLSVTVPIGQILLVLGVFCSAAFLTMAVATRKRVFSRAAWSPLLLIRAATEAVSALTFATALSLVDLSTVAAVFQAMPLVVTMGAALFLGEQVGWRRWSAITVGFVGVLMIIRPGMAGFQPAQLLVVASVISVAARDLITRRIDAHVASAVVSFQAYLALILGGAGILLVSGTALVPVEPGHWGPYAGAILFGVLGYYGIVTAMRVGEASVVTPFRYTRLLFSLLAGVLVFGERPDWPTLAGGALIIGSGLYTFLRERRLARELAAVPA”, the protein production is reported as “failed”.
With “MAAPRVIMAAPRVIMAAITGVTPEVVNRTRPERRDLADMRAAMKTGFTAVASVIGVGVAGLAYGVIEAHRFVVRHVEVPVLKPGSSPLRILHMSDLHLLARQETKRRFIRQLDALNPDLVINTGDNFCSADSLQPLLDDMSGLLQRPGTFVFGSNDYLVPKFKNPFSYLLWGRSQQATEPVPELPHEELRQAFTSAGWLDLNDKSETLEVAGHRLTLRGTDDAHHDRDHYEEVAGPPDGEADLNIGVTHAPYLKILDAMVSDGMDIVFAGHTHGGQVCLPFTGAIITNCDLDTERAKGLSQHGRGGHTGWLHVSAGLGCSPFAPYRTFCRPEATLLTLVPRP” the protein production was “failed”.
With “MAAPSVPTPLYGHVGRGAFSDVYEPAEDTFLLLDALEAAAAELAGVELCLEVGAGSGVVSAFLASMIGPQALYMCTDINPKAAACTLETARCNRVHLQPVITDLVQGLLPRLKGKVDLLVFNPPYVVTPPEEVGSHGIEAAWAGGRNGREVMDRFFPLASQLLSPRGLFYLVTIKENNPVLPRSYGNAANVPELGSGQLGENLLAFKSNIGGLSKGKLYH” the protein production was “failed”.
With “MAAPVVVAPAINLQHMDLPEGNEDVAAVLQTSTQRWLNAAEWSILYNNHNLFPESNSFTIPIEVEGLYRVDNRFNQDSNTWRNTSAPSTCKNAINFYNVRIATGLYRFDDDGDIVMDAEVQGGWVLCRKTVRNRGHCGTRLSHLYKPVFDRQFKMLKIHMMEDMIKDGEEKSLDTFVISRQLTTFTDLTGWAFGSSVIVEFKVRLEHLRGKSIPIA” the protein production was “failed”.
With “MAARAWVVAVVGFFVMWLMFQVVGWVIGVIWGVWQQLDQATAGTMIEPPQDWKNMLNSLYSNMLGIWNYLPVVVLLSAVVYIIIESLRRRPEEYYV” the protein production was “failed”.
For “MAARDPEATKARIFEAAVAEFARHGIAGARIDRIAAEARANKQLIYAYYGNKGELFASVLEKKMLDLAISVPVDPDDIEGWIDRLLDYHAAHPELLRLLFWEGMEYGTAELPHEAERQEHYARKVAAVRDGQERGVITDAIPAPDLLFLLVAMANWAVVVPQMKRILVGGGDAGTDGLRDSIKKAARRIVDR”, the protein production was “not failed”.
In the case of “MAARRAPISRRDRPAKPALSRRWIVDTAVALMRAEGLEKVTMRRLAQELDTGPASLYVYVANTAELHAAVLDALLGEVDLTGAGAEEDWREQLRAVLTSYTLVLFAHPQLARSALVARPSGENYLRLVERVLELLARSGAPGAQVAWGVDKLLQDATATAAEQATQEHDPASHEDWSATVRALRDADEATHPAIASHMPLLVAGSAHDRLRWSFDVLVNGITRTPVPGPARGAAG”, the protein production is reported as “not failed”.
In the case of “MAASAHGSVWGPLRLGIPGLCCRRPPLGLYARMRRLPGPEVSGRSVAAASGPGAWGTDHYCLELLRKRDYEGYLCSLLLPAESRSSVFALRAFNVELARVKDSVSEKTIGLMRMQFWKKTVEDIYCDNPPHQPVAIELWKAVKRHNLTKRWLMKIVDEREKNLDDKAYRNIKELENYAENTQSSLLYLTLEILGIKDLHADHAASHIGKAQGIVTCLRATPYHGSRRKVFLPMDICMLHGVSQEDFLRRNQDKNVRDVIYDIASQAHLHLKHARSFHKTVPVKAFPAFLQTVSLEDFLKKIQRVDFDIFHPSLQQKNTLLPLYLYIQSWRKTY”, the protein production is reported as “failed”.
In the case of “MAATRLKRRKFPTINEEFYYNQLENGMTVFLIPKESFKETLAVMSSRFGSIDTNFTVNGKKKSYLAGIAHLLEHQLFEMNKQKDAAYEFTKLGAESNAYTTFDKTIYYFSTADNIKKNLDLLQEFTSQINFTDMSIEKEKKIITQEFNMYQDDSDDYLYQVILSKLYPQTSLAEDITGNRDSIDKLTKNNLEENFHYFYQPENLTLLVAGDFDVKRVYKDIVTTQRQLPDRP”, the protein production is reported as “failed”.
